One substance from PMC8104898 can be followed below.

This experiment addresses fibronectin fragment FN7-10 (type III domains 7 to 10), wild type. Nature of the experiment: ELISA.

“recombinant integrin α5(N275A)β1 ectodomain, unclasped (from UniProt P08648;P05556) (complex)” registered a reduction of binding against the wild-type ectodomain of 60%.
